What was measured:
[1] = target: Peptide-7 (tau 195-214, pS199/pS202); assay: SPR
[2] = target: paired-helical filament tau (PHF-tau) from AD brain (human (endogenous in AD patient cortex)) (UniProt P10636); assay: SPR
Chain of paired-helical filament tau (PHF-tau) from AD brain (human (endogenous in AD patient cortex)) (P10636 whole entry): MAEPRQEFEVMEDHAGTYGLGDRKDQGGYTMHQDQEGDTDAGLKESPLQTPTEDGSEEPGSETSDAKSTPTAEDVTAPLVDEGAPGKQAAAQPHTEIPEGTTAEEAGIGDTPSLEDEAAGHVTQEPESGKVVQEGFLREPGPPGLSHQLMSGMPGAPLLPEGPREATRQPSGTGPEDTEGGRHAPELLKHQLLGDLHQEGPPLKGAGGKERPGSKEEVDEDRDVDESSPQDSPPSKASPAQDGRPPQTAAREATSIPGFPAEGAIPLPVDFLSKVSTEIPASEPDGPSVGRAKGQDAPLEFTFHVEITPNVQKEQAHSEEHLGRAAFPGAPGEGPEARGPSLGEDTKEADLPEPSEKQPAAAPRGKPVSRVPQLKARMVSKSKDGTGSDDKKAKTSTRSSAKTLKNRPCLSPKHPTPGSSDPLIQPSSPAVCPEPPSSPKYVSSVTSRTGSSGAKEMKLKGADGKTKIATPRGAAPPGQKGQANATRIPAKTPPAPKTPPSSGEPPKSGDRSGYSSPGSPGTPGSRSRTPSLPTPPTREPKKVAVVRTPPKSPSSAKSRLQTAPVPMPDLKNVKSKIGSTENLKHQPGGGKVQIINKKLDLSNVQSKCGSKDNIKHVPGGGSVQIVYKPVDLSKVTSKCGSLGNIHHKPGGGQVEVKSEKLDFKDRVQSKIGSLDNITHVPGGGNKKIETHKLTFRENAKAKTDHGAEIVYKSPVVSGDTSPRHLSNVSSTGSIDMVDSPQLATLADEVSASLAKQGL

Kd [1]: > 1000 µM
Kd [2]: 0.021 µM
Substance: AT8 Fab (from UniProt P01857 1-103; P01834 1-107)

From publication PMC5067699
